In PMC9769551:

What follows are sequences tested against T1, AcrR (Escherichia coli BW25113) (UniProt P0ACS9) (assay: EMSA). Conditions: 10 mM Tris-HCl pH 7.5, 50 mM KCl, 1 mM DTT, 5 mM MgCl2, 1 ug poly(dI-dC), 0.05% NP-40, 5% glycerol, 20 uL with 25 fmol DNA (protein stock in 200 mM NaCl, 20 mM …).
T1 sequence: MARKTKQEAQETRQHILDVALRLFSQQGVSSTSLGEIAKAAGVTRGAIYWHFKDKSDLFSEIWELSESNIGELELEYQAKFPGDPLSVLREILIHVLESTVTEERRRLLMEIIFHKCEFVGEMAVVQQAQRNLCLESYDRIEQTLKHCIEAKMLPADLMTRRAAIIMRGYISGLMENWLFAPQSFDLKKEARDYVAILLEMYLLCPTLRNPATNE
In the case of “GTGGACTAAATTATCGCCATTACTGCGCTTTAAATGACCTTTATGTTCAATATTTTTTCAATCTAGCAGTGGGTTTTCATTTTTGCAAACTCAATTTAACATTTGACAAACATTTAGTTTGCATACAGATTCGAATGGTGGTCATTATATTTTACGCTTTGATAACGAGCGGAAAACAAACCAAAGGCGAAGAATCATGGAAACCAATATCGTTGAAGTAGAGAAC (double strand) [puuAp 226 bp]”, the binding is reported as “binds”. In the case of “CTTTGATAGTCATATATTCCACCAGCTATTTGTTAGTGAATAAAAGGTTGCCTGTAAAATTACAAAAACCTTACGCAGCGTCAAGCGGAATCGTGTCAATCATTGCGACAAATCAATCCTGTGCCTAAGCATTACGCGACTGACTCGCCTCACTCTTCCTTTGGGCTTGAGACCACATGGGGTCGGCGCCCCGAATTTTAAAGGGCAATTACGATAAAAATGTGATTTTCATCACGATTTAGGTGCAGC (double strand) [gapAp 249 bp]”, the binding is reported as “no binding”. For “CAAAGTAAAGTGGTCAAGCCCCGCGCATAGCGCAAGCTTTGGCAGAAGAAAGGACTAAAGCGCGTTGCGCCAGTGCTGCTCACCTACGAGCAAGATAGTGGATGAGGTACGAAGATGGGTAAATGTAGAAAATAACGTCCTGAACAAATTGTCCATAATATTACAATTATCCGCAGTGTTGCTTCTCGTCATCGCGGATGATAATTGTCCTCGGTAGTTGAACACGCCTGATTTGTATCATAGCTTAAGAATTAACTCAAAATATTTTCACTTCTTTACCTGAGCG (double strand) [mdtUJIp 286 bp]”, the binding was “binds”. In the case of “TGTTCATATGTAAACCTCGAGTGTCCGATTTCAAATTGGTCAATGGTCAAAAGTTAATAAACCCATTGCTGCGTTTATATTATCGTCGTGCTATGGTACATACATTCACAAATGTATGTAAATCTAACGCCTGTAAATTCACGAACATATGGCACGAAAAACCAAACAAGAAGCGCAAG (double strand) [acrABp 179 bp]”, the binding is reported as “binds”.
